How the values were obtained:
Assay in all cases: cell-based or functional assay
[1] = target: SARS-CoV-2 Omicron sublineage BF.7 spike (S) protein (SARS-CoV-2)
[2] = target: SARS-CoV-2 spike (S) protein, Omicron sublineage BQ.1.1 (SARS-CoV-2)
[3] = target: SARS-CoV-2 spike (S) protein, Omicron sublineage XBB.1.5 (SARS-CoV-2)
[4] = target: SARS-CoV-2 spike (S) protein, Omicron sublineage BA.2.75.2 (SARS-CoV-2)
[5] = target: SARS-CoV-2 spike (S) protein, Omicron sublineage XBB (SARS-CoV-2)
[6] = target: SARS-CoV-2 spike (S) protein, Omicron sublineage BA.4/5 (SARS-CoV-2)
[7] = target: SARS-CoV-2 Omicron sublineage CH.1.1 spike (S) protein (SARS-CoV-2)
[8] = target: SARS-CoV-2 KP.2.3 spike (S) protein (SARS-CoV-2)
[9] = target: SARS-CoV-2 KP.3 spike (S) protein (SARS-CoV-2)
[10] = target: SARS-CoV-2 KP.3.1.1 spike (S) protein (SARS-CoV-2)
[11] = target: SARS-CoV-2 LB.1 spike (S) protein (SARS-CoV-2)
[12] = target: SARS-CoV-2 KP.2 spike (S) protein (SARS-CoV-2)
[13] = target: SARS-CoV-2 HK.3 spike (S) protein (SARS-CoV-2)
[14] = target: SARS-CoV-2 B.1.526 spike (S) protein (SARS-CoV-2)
[15] = target: SARS-CoV-2 B.1.617.2 spike (S) protein (SARS-CoV-2)
[16] = target: SARS-CoV-2 XBB.1.16.6 spike (S) protein (SARS-CoV-2)
[17] = target: SARS-CoV-2 BA.2.86 spike (S) protein (SARS-CoV-2)
[18] = target: SARS-CoV-2 EG.5.1 spike (S) protein (SARS-CoV-2)
[19] = target: SARS-CoV-2 B.1.617.1 spike (S) protein (SARS-CoV-2)
[20] = target: SARS-CoV-2 BA.1 spike (S) protein (SARS-CoV-2)
[21] = target: SARS-CoV-2 B.1.621 spike (S) protein (SARS-CoV-2)
[22] = target: SARS-CoV-2 B.1.351 spike (S) protein (SARS-CoV-2)
[23] = target: SARS-CoV-2 XBB spike (S) protein (SARS-CoV-2)
[24] = target: SARS-CoV-2 CH.1.1 spike (S) protein (SARS-CoV-2)
[25] = target: SARS-CoV-2 XBB.2.3.2 spike (S) protein (SARS-CoV-2)
[26] = target: SARS-CoV-2 XBB.1.5 spike (S) protein (SARS-CoV-2)
[27] = target: SARS-CoV-2 B.1.429 spike (S) protein (SARS-CoV-2)
[28] = target: SARS-CoV-2 B.1.427 spike (S) protein (SARS-CoV-2)
[29] = target: SARS-CoV-2 spike (S) protein, B.1.617.2 (SARS-CoV-2)
[30] = target: SARS-CoV-2 spike (S) protein, B.1.351 (SARS-CoV-2)
[31] = target: SARS-CoV-2 JF.1 spike (S) protein (SARS-CoV-2)
[32] = target: SARS-CoV-2 FL.1.5.1 spike (S) protein (SARS-CoV-2)
[33] = target: SARS-CoV-2 P.2 spike (S) protein (SARS-CoV-2)
[34] = target: SARS-CoV-2 BA.4/5 spike (S) protein (SARS-CoV-2)
[35] = target: SARS-CoV-2 JN.1 spike (S) protein (SARS-CoV-2)
[36] = target: SARS-CoV-2 B.1.1.7 spike (S) protein (SARS-CoV-2)
[37] = target: SARS-CoV-2 JD.1.1 spike (S) protein (SARS-CoV-2)
[38] = target: SARS-CoV-2 B.1.525 spike (S) protein (SARS-CoV-2)
[39] = target: SARS-CoV-2 HV.1 spike (S) protein (SARS-CoV-2)
[40] = target: SARS-CoV-2 P.1 spike (S) protein (SARS-CoV-2)

Substance: LY1404 (antibody)
- pseudotyped neutralization potency IC50 [1]: 0.02 nM
- pseudotyped neutralization potency IC80 [1]: 0.18 nM
- pseudotyped neutralization potency IC50 [2]: > 67 nM
- pseudotyped neutralization potency IC80 [2]: > 67 nM
- pseudotyped neutralization potency IC50 [3]: > 67 nM
- pseudotyped neutralization potency IC80 [3]: > 67 nM
- pseudotyped neutralization potency IC50 [4]: 0.04 nM
- pseudotyped neutralization potency IC80 [4]: 0.14 nM
- pseudotyped neutralization potency IC50 [5]: > 67 nM
- pseudotyped neutralization potency IC80 [5]: > 67 nM
- pseudotyped neutralization potency IC50 [6]: 0.01 nM
- pseudotyped neutralization potency IC80 [6]: 0.02 nM
- pseudotyped neutralization potency IC50 [7]: > 67 nM
- pseudotyped neutralization potency IC80 [7]: > 67 nM

Substance: ADG20 (antibody)
- pseudovirus neutralization IC50 [8]: > 67 nM
- pseudovirus neutralization IC80 [8]: > 67 nM
- pseudovirus neutralization IC50 [9]: > 67 nM
- pseudovirus neutralization IC80 [9]: > 67 nM
- pseudovirus neutralization IC50 [10]: > 67 nM
- pseudovirus neutralization IC80 [10]: > 67 nM
- pseudovirus neutralization IC50 [11]: > 67 nM
- pseudovirus neutralization IC80 [11]: > 67 nM
- pseudovirus neutralization IC50 [12]: > 67 nM
- pseudovirus neutralization IC80 [12]: > 67 nM

Substance: AZD3152 (antibody)
- pseudovirus neutralization IC50 [13]: > 10 mg/L
- pseudovirus neutralization IC50 [14]: 0.049 mg/L
- pseudovirus neutralization IC50 [15]: 0.09 mg/L
- pseudotyped neutralization potency IC50 [16]: > 66.7 nM
- pseudotyped neutralization potency IC80 [16]: > 66.7 nM
- pseudovirus neutralization IC50 [16]: > 10 mg/L
- pseudotyped neutralization potency IC50 [17]: 1.8 nM
- pseudotyped neutralization potency IC80 [17]: 5.4 nM
- pseudovirus neutralization IC50 [17]: 0.053 mg/L
- pseudotyped neutralization potency IC50 [18]: > 66.7 nM
- pseudotyped neutralization potency IC80 [18]: > 66.7 nM
- pseudovirus neutralization IC50 [18]: > 10 mg/L
- pseudovirus neutralization IC50 [19]: 0.041 mg/L
- pseudovirus neutralization IC50 [20]: 0.012 mg/L
- pseudovirus neutralization IC50 [21]: 0.04 mg/L
- pseudovirus neutralization IC50 [22]: 0.024 mg/L
- pseudovirus neutralization IC50 [23]: 0.011 mg/L
- pseudovirus neutralization IC50 [24]: 0.045 mg/L
- pseudotyped neutralization potency IC50 [25]: 0.0806 nM
- pseudotyped neutralization potency IC80 [25]: 0.488 nM
- pseudovirus neutralization IC50 [25]: 0.025 mg/L
- pseudovirus neutralization IC50 [26]: 0.016 mg/L
- pseudovirus neutralization IC50 [27]: 0.082 mg/L
- pseudovirus neutralization IC50 [28]: 0.09 mg/L
- IC50, pseudotyped neutralization potency [29]: 0.281 nM
- IC80, pseudotyped neutralization potency [29]: 0.518 nM
- IC50, pseudotyped neutralization potency [30]: 0.023 nM
- IC80, pseudotyped neutralization potency [30]: 0.041 nM
- pseudovirus neutralization IC50 [31]: > 10 mg/L
- pseudotyped neutralization potency IC50 [32]: > 66.7 nM
- pseudotyped neutralization potency IC80 [32]: > 66.7 nM
- pseudovirus neutralization IC50 [32]: > 10 mg/L
- pseudovirus neutralization IC50 [33]: 0.02 mg/L
- pseudovirus neutralization IC50 [34]: 0.03 mg/L
- pseudovirus neutralization IC50 [35]: 0.766 mg/L
- pseudovirus neutralization IC50 [36]: 0.093 mg/L
- pseudovirus neutralization IC50 [37]: > 10 mg/L
- pseudovirus neutralization IC50 [38]: 0.1 mg/L
- pseudovirus neutralization IC50 [39]: > 10 mg/L
- pseudovirus neutralization IC50 [40]: 0.047 mg/L
